Assay results taken from PMC2653193, “A Unique Dual Activity Amino Acid Hydroxylase in Toxoplasma gondii” (PLoS ONE, 2009).

T1: TgAaaH2 (Toxoplasma gondii, UniProt B2L7T2)
T1 construct: gene AaaH2; N-terminal 23 residues (predicted signal peptide) removed; N-terminal 6xHis tag (pET 45b) kept; E. coli BL21; full-length ORF 565 residues; primer text says begins at residue 23
T1 sequence (B2L7T2 23-565): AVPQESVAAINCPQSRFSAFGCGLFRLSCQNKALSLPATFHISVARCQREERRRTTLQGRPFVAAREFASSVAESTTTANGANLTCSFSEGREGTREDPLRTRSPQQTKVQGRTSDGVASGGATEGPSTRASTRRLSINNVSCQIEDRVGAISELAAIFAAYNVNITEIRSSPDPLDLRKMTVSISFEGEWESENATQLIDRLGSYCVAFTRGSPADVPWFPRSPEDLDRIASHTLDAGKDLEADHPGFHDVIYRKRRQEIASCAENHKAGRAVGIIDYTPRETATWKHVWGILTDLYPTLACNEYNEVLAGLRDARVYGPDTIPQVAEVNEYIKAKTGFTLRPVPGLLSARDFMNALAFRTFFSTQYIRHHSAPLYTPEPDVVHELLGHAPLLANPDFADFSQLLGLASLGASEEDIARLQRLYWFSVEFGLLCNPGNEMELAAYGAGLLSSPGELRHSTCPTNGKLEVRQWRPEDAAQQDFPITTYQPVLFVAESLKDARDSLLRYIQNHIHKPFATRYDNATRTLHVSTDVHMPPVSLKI

T2: TgAaaH1 (Toxoplasma gondii, UniProt B2L7T1)
T2 construct: gene AaaH1; N-terminal 23 residues (predicted signal peptide) removed; N-terminal 6xHis tag (pET 45b) kept; E. coli BL21; full-length ORF 565 residues; primer text says begins at residue 23
T2 sequence (B2L7T1 23-565): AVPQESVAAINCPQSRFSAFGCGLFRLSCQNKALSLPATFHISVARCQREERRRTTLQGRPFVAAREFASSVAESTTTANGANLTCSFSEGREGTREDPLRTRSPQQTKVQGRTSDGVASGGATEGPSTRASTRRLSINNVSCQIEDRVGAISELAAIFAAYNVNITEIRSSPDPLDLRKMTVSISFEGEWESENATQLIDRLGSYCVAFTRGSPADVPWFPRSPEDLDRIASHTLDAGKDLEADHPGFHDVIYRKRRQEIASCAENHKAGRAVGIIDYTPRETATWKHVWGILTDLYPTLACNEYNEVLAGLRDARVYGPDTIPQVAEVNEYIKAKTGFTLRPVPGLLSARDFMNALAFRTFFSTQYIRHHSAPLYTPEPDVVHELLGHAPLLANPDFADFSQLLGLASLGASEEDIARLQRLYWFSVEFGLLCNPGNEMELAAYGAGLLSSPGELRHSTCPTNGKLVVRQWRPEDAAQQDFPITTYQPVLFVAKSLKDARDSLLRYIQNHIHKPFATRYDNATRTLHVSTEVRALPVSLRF

B1: TgAaaH1 (Toxoplasma gondii) (protein)
chain: AVPQESVAAINCPQSRFSAFGCGLFRLSCQNKALSLPATFHISVARCQREERRRTTLQGRPFVAAREFASSVAESTTTANGANLTCSFSEGREGTREDPLRTRSPQQTKVQGRTSDGVASGGATEGPSTRASTRRLSINNVSCQIEDRVGAISELAAIFAAYNVNITEIRSSPDPLDLRKMTVSISFEGEWESENATQLIDRLGSYCVAFTRGSPADVPWFPRSPEDLDRIASHTLDAGKDLEADHPGFHDVIYRKRRQEIASCAENHKAGRAVGIIDYTPRETATWKHVWGILTDLYPTLACNEYNEVLAGLRDARVYGPDTIPQVAEVNEYIKAKTGFTLRPVPGLLSARDFMNALAFRTFFSTQYIRHHSAPLYTPEPDVVHELLGHAPLLANPDFADFSQLLGLASLGASEEDIARLQRLYWFSVEFGLLCNPGNEMELAAYGAGLLSSPGELRHSTCPTNGKLVVRQWRPEDAAQQDFPITTYQPVLFVAKSLKDARDSLLRYIQNHIHKPFATRYDNATRTLHVSTEVRALPVSLRF
notes: N-terminal 23 residues (predicted signal peptide) removed; N-terminal 6xHis tag (pET 45b) kept; E. coli BL21; full-length ORF 565 residues; primer text says begins at residue 23
B2: TgAaaH2 (Toxoplasma gondii) (protein)
chain: AVPQESVAAINCPQSRFSAFGCGLFRLSCQNKALSLPATFHISVARCQREERRRTTLQGRPFVAAREFASSVAESTTTANGANLTCSFSEGREGTREDPLRTRSPQQTKVQGRTSDGVASGGATEGPSTRASTRRLSINNVSCQIEDRVGAISELAAIFAAYNVNITEIRSSPDPLDLRKMTVSISFEGEWESENATQLIDRLGSYCVAFTRGSPADVPWFPRSPEDLDRIASHTLDAGKDLEADHPGFHDVIYRKRRQEIASCAENHKAGRAVGIIDYTPRETATWKHVWGILTDLYPTLACNEYNEVLAGLRDARVYGPDTIPQVAEVNEYIKAKTGFTLRPVPGLLSARDFMNALAFRTFFSTQYIRHHSAPLYTPEPDVVHELLGHAPLLANPDFADFSQLLGLASLGASEEDIARLQRLYWFSVEFGLLCNPGNEMELAAYGAGLLSSPGELRHSTCPTNGKLEVRQWRPEDAAQQDFPITTYQPVLFVAESLKDARDSLLRYIQNHIHKPFATRYDNATRTLHVSTDVHMPPVSLKI
notes: as for B1

Legend:
TgAaaH2 = molecular target: T1, TgAaaH2; assay: coupled dihydropteridine reductase assay, NADH oxidation at […] nm; format: biochemical; conditions: 50 µM amino acid (tyrosine in Figure 4B), 0-500 µM 6-MPH4, 500 µM NADH, 10 µM ferrous ammonium sulphate, 50 mM HEPES, pH 7.5, 32°C; range printed jointly for both enzymes, not assigned
TgAaaH1 = molecular target: T2, TgAaaH1; assay: as above; format: biochemical; conditions: 50 µM amino acid (tyrosine in Figure 4B), 0-500 µM 6-MPH4, 500 µM NADH, 10 µM ferrous ammonium sulphate, 50 mM HEPES, pH 7.5, 32°C; range printed jointly for both enzymes, not assigned
purified protein [1] = substrate: N[C@@H](Cc1ccc(O)cc1)C(=O)O; assay: purified protein; format: biochemical, Toxoplasma gondii; conditions: 500 µM 6-MPH4, 500 µM NADH, 10 µM ferrous ammonium sulphate, 50 mM HEPES, pH 7.5, 32°C, 0-200 µM tyrosine, substrate inhibition at high concentration
purified protein [2] = substrate: N[C@@H](Cc1ccccc1)C(=O)O; assay: purified protein; format: biochemical, Toxoplasma gondii; conditions: 500 µM 6-MPH4, 500 µM NADH, 10 µM ferrous ammonium sulphate, 50 mM HEPES, pH 7.5, 32°C, 0-200 µM phenylalanine, substrate inhibition at high concentration

Molecule | Km (TgAaaH2) [µM] | Km (TgAaaH1) [µM] | Km (purified protein [1]) [µM] | Vmax (purified protein [1]) [µmol/min/mg] | Km (purified protein [2]) [µM] | Vmax (purified protein [2]) [µmol/min/mg]
CC1CNc2nc(N)[nH]c(=O)c2N1 (stereo not shown) [6-MPH4] | 310 to 318 | 310 to 318 |  |  |  | 
B1 |  |  | 1.25 ± 0.69 | 0.137 ± 0.014 | 2.45 ± 1.87 | 0.125 ± 0.015
B2 |  |  | 5.50 ± 3.26 | 0.123 ± 0.001 | 14.8 ± 6.4 | 0.145 ± 0.037
